We go through one substance from article doi:10.1101/049148.

In experiment [1] the target is Heh2-VN (budding yeast (endogenously tagged)) (UniProt Q03281). Put plainly: split reporter.
The target in experiment [2] is Heh1-VN (budding yeast (endogenously tagged)) (UniProt Q03707). The experiment in a line: split reporter.
UniProt Q03707, sequence (Q03707 whole entry): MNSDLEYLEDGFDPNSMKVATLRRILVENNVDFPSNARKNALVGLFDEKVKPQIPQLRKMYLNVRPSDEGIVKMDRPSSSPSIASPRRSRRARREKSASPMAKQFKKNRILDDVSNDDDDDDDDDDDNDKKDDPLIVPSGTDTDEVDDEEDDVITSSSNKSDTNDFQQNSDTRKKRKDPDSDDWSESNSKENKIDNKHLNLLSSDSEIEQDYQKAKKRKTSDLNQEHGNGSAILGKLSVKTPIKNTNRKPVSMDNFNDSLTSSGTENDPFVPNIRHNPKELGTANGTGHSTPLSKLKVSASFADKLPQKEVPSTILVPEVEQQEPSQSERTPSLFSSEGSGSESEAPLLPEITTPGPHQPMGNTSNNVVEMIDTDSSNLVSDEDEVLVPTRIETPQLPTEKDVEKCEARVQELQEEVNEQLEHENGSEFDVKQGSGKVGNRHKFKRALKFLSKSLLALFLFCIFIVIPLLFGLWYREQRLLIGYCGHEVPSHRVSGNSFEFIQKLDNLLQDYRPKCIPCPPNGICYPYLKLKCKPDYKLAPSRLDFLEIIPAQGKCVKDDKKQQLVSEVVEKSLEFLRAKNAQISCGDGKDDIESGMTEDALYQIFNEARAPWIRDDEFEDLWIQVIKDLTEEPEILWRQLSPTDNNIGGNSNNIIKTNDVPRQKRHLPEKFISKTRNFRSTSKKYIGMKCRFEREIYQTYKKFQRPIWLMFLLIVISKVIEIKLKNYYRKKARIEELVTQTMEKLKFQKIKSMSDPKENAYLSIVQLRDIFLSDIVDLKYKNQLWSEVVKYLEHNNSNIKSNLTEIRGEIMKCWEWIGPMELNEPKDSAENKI

UniProt Q03281, sequence (Q03281 whole entry): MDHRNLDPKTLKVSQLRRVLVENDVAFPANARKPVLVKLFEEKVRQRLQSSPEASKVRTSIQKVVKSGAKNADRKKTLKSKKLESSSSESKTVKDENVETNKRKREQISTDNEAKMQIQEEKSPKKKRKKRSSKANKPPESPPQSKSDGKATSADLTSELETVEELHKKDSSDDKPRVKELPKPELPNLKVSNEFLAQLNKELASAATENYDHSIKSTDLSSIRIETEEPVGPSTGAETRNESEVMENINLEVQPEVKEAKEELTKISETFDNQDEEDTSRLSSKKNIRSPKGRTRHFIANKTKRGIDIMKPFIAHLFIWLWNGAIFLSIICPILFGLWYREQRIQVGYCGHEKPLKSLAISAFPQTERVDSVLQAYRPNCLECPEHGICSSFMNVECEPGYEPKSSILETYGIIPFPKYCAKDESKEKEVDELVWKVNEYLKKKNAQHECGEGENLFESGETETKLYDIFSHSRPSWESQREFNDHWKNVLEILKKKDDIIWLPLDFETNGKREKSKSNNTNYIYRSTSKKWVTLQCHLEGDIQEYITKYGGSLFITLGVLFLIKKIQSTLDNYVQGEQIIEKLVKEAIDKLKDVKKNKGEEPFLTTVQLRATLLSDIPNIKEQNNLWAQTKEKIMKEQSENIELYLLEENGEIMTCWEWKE

As to Chm7-VC (natural protein), the values for the percent of cells with a BiFC focus in experiment [1] and in experiment [2] were 3% and 28%, respectively.
